Among the data in patent US20160333063A1, “SOLUBLE HIGH MOLECULAR WEIGHT (HMW) TAU SPECIES AND APPLICATIONS THEREOF” (THE GENERAL HOSPITAL CORPORATION, priority 2013, published 2016) are Aβ40 left in the medium after immunodepletion values, retold here.

The target of the assay is amyloid beta (Aβ, measured as Aβ40) in conditioned medium from Tg2576 neuronal cultures (TgCM) (human and murine) (UniProt P05067). Put plainly: immunodepletion of TgCM with 9 µg 6E10 and Protein G-Sepharose beads; Aβ40 ELISA of the supernatant (TgCM about 12 nM Aβ40 before depletion). For orientation: An ELISA detects its analyte on a solid surface through an enzyme-linked reagent.
amyloid beta (Aβ, measured as Aβ40) in conditioned medium from Tg2576 neuronal cultures (TgCM) (human and murine), sequence (P05067 672-711 limits assumed): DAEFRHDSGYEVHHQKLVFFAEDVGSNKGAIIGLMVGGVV

Take “6E10 (Signet), a high-titer mouse monoclonal Aβ antibody reactive to amino acid residue 1-16 of beta amyloid”: the Aβ40 left in the medium after immunodepletion is 0.1 nM.
